# US20140322218A1 (Amgen, published 2014)
# T1: caCDH19(1-42)::FLAG::caCDH19(43-770), on 293T cells (dog)
# T1 construct: also called Ca EC1-5
# T1 chain: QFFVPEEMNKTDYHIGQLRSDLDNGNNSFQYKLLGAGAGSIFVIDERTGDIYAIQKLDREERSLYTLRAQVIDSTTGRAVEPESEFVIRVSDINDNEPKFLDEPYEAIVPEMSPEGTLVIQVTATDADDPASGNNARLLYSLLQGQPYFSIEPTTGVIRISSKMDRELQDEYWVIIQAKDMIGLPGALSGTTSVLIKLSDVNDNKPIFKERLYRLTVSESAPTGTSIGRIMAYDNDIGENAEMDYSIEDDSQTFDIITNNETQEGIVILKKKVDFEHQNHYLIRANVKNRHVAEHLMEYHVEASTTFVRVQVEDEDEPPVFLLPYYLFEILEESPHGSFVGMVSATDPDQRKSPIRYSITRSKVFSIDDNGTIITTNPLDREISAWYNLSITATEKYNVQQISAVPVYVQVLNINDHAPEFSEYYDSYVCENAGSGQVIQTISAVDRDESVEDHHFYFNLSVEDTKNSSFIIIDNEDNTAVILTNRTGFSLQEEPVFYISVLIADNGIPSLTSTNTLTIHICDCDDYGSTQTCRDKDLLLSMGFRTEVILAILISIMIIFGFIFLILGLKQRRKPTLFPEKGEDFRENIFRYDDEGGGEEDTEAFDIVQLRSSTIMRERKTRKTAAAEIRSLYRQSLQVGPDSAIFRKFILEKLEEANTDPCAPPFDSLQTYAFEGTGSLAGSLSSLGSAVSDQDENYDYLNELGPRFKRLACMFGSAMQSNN
# T2: caCDH19(1-43)::FLAG::caCDH19(44-87)::rhCDH19(89-114)::caCDH19(115-770), on 293T cells (rhesus macaque/dog chimera)
# T2 construct: also called rh EC1b (dog backbone)
# T2 chain: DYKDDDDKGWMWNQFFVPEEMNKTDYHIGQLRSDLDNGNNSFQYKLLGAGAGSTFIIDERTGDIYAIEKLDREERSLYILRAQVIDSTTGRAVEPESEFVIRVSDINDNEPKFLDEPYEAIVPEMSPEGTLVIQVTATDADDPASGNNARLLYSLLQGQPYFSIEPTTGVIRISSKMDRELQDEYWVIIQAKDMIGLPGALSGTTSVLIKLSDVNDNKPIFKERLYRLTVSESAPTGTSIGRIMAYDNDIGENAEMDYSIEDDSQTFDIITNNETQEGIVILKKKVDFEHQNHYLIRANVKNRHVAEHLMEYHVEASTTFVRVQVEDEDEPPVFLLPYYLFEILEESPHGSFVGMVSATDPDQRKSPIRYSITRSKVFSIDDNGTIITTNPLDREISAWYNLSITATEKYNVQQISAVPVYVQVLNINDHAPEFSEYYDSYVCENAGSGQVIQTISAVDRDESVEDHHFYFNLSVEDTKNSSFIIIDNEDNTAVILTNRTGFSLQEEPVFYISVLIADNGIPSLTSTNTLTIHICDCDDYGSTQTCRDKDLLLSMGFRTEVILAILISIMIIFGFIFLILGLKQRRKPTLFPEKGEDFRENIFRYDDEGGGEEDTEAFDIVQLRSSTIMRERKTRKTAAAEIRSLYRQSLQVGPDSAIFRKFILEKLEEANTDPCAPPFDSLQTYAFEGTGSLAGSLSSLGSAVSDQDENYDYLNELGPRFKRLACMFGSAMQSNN
# T3: (1-43)::FLAG::muCDH19(44-323)::raCDH19(324-327)::muCDH19(328-770), on 293T cells (mouse/rat chimera)
# T3 construct: Entry holds leader (1-43), Flag tag and CDH19 part; leader left out; also called Ra EC3c
# T3 chain: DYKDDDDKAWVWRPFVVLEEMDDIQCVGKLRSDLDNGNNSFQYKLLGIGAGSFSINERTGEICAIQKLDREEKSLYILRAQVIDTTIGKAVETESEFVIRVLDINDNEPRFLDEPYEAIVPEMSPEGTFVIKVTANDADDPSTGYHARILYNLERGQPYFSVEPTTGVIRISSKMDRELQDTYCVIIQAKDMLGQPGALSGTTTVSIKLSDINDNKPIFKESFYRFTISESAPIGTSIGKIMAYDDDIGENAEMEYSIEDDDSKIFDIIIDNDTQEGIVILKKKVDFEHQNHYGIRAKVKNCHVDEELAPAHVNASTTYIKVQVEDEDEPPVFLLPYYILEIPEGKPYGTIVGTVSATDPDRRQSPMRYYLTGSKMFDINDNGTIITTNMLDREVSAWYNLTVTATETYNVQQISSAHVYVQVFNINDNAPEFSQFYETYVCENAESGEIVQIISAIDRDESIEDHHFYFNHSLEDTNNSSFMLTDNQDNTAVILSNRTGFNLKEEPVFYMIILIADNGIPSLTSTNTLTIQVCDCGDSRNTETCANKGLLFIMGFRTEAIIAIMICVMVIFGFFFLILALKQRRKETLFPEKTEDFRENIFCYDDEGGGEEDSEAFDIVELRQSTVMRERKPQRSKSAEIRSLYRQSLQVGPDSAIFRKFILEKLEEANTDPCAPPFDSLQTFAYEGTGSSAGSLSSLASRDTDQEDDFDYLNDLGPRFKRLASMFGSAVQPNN
# What was measured:
# [1] = molecular target: T1, caCDH19(1-42)::FLAG::caCDH19(43-770), …; assay: FACS, transfected 293T
# Description: (§1) The following binding assay was completed in presence of 2 mM CaCl2. […] Cells were then washed one time and the amount of cell associated Alexa647-labelled Ab was quantitated by flow cytometry. The experiments included mock transfected controls.
# [2] = molecular target: T4, rhCDH19(1-43)::FLAG::rhCDH19(44-141)::caCDH19(141-770), on 293T cells (rhesus macaque/dog chimera); assay: FACS, transfected 293T
# T4 construct: Entry holds leader (1-43), Flag tag and CDH19 part; leader left out; also called rh EC1 (dog backbone)
# Description: as §1
# [3] = molecular target: T2, caCDH19(1-43)::FLAG::caCDH19(44-87)::rhC …; assay: FACS, transfected 293T
# Description: as §1
# [4] = molecular target: T5, rhCDH19(1-43)::FLAG::rhCDH19(44-65)::caCDH19(65-770), on 293T cells (rhesus macaque/dog chimera); assay: FACS, transfected 293T
# T5 construct: Entry holds leader (1-43), Flag tag and CDH19 part; leader left out; also called rh EC1a (dog backbone)
# Description: as §1
# [5] = molecular target: T6, Human Cadherin-19 (human, UniProt Q9H159 44-772); assay: FACS, endogenous CDH19 on CHL-1/Colo699
# T6 construct: Residues 1-43 are named as the native leader in the construct designations and are left out; also called human CDH19; huCDH19
# Description: (§2) FACS binding assays were performed to evaluate the binding of the anti-Cadherin-19 receptor specific antibodies to endogenous Cadherin-19 receptor expressed on the CHL-1 tumor cell lines.
# (§3) FACs assays were performed by incubating hybridoma supernatants with 10,000 to 25,000 cells in PBS/2% Fetal bovine serum/2 mM Calcium Chloride at 4° C. for one hour followed by two washes with PBS/2% Fetal bovine serum/2 mM Calcium Chloride. Cells were then treated with florochrome-labeled secondary antibodies at 4° C. followed by one wash. The cells were resuspended in 50 μl of PBS/2% FBS and antibody binding was analyzed using a FACSCalibur™ instrument.
# [6] = molecular target: T3, (1-43)::FLAG::muCDH19(44-323)::raCDH19(3 …); assay: FACS, transfected 293T
# [7] = molecular target: T6, Human Cadherin-19; assay: FACS, endogenous and recombinant human CDH19
# Description: as §2, §3
Binder,binding result [1],binding result [2],binding result [3],binding result [4],binding result [5],binding result [6],binding result [7]
"anti-CDH19 antibody 2G6 (Ab ID 13588) (antibody, human IgG1, lambda, V domains shown) VH: QVQLVESGGGVVQPGRSLRLSCAASGFTFSSYGMHWVRQAPGKGLEWVAFIWYDGSNKYYADSVKDRFTISRDNSKNTLYLQMKSLRAEDTAVYYCARRAGIIGTIGYYYGMDVWGQGTTVTVSS VL: SYELTQPPSVSVSPGQTASITCSGDRLGEKYTCWYQQRPGQSPLLVIYQDTKRPSGIPERFSGSNSGNTATLTISGTQAMDEADYYCQAWDSSTVVFGGGTKLTVLG",–,–,–,–,–,binds,binds
"hu anti-<huCDH19> 4B10 VH::huIgG1z / 4B10 VL::huKLC (Ab ID 13590) (antibody, V domains shown) VH: QVQLVESGGGVVQPGRSLRLSCAASGFTFSSYDMHWVRQAPGKGLEWVAVISYDGTNEYYADSVKGRFTISRDTSKNTLYLQMNSLRAEDTAVYYCARERYFDWSFDYWGQGTLVSVSS VL: EIVLTQSPGTLSLSPGERATLSCRASQSVSNTYLAWYHQRPGQAPRLLIYGASSRATGIPDRFSGSGSGTDFALTISSLEPEDFAVYYCQQYSNSWTFGQGTKVEIKR",–,–,–,–,–,binds,binds

# The remaining lines, values ahead:
binding result [1],binding result [2],binding result [3],binding result [4],binding result [5],binding result [6],binding result [7],Binder
no binding (tested: 5 ug/ml),binds,binds,binds,binds,–,–,"hu anti-<huCDH19> 26D1.1 VH::huIgG1z / 26D1.1 VL::huLLC-C2 (Ab ID 13882) (antibody, V domains shown) VH: QVQLVQSGAEVKKPGASVKVSCKASRYTFTSYYMSWVRQAPGQGLEWMGIIHPSGGDTTYAQKFQGRVTMTGDTSTSTVYMELSSLRSEDTAVYYCARGGIKLWLHFDYWGQGTLVTVSS VL: not shown"
no binding (tested: 5 ug/ml),binds,no binding (tested: 5 ug/ml),no binding (tested: 5 ug/ml),binds,–,–,"hu anti-<huCDH19> 4A9 VH::huIgG1z / 4A9 VL::huLLC-C1 (Ab ID 13589) (antibody, V domains shown, Recombinant fully human IgG1) VH: QVQLQESGPGLVKPSETLSLTCTVSGGSISGYYWSWIRQPPGKGLEWFAYFSYSGSTNYNPSLKSRVTLSVDTSKNQFSLKLSSVTAADTAVYYCARNWAFHFDFWGQGTLVTVSS VL: QSVLTQPPSVSGAPGQRVTISCTGSSSNIGTGYAVHWYQQFPGTAPKLLIYGNNNRPSGVPDRFSGSKSGTSASLAITGLQAEDEADYYCQSYDSRLSGWVFGGGTKLTVLG"
